Test results as given in patent publication US5889152A, “Porphenins--antibiotic peptides” (Regents of the University of California, priority 1995, dated 1999).
Where no end group is shown, it is not given here.

B1: Prophenin-1: 79-residue proline-rich antimicrobial peptide purified from porcine leukocytes, mass 8,683, SEQ ID NO:1 (protein)
chain: AFPPPNVPGPRFPPPNFPGPRFPPPNFPGPRFPPPNFPGPRFPPPNFPGPPFPPPIFPGPWFPPPPPFRPPPFGPPRFP

Assays:
[1] = tested on: C. albicans, strain 820; experiment: Radial diffusion assay in agarose gels, C. albicans; assay type: cell-based, Candida albicans; conditions: clear zone units
Description: (§1) Aliquots (66 μl) of each fraction were dried by vacuum centrifugation, and resuspended in approximately 6.6 μl of 0.01% acetic acid. […] samples of this concentrate were tested for antimicrobial activity against E. coli ML-35, L. monocytogenes, Strain EGD and C. albicans, strain 820 by radial diffusion and gel overlay techniques (Lehrer, R. I. et al. J Immunol Meth (1991) 137:167-173). Active fractions were further examined by acid-urea PAGE and SDS-PAGE. Prophenins emerged from the P10 column in fractions 38-43 (39.6 ml total volume), which contained a total of 18 mg protein by BCA analysis.
(§2) The radial diffusion assay in agarose gels as described above was also used to test the activity of the purified prophenins. Samples of 5 μL each were added to 3 mm wells in thin gels composed of 10 mM sodium phosphate, 30 mg/ml trypticase soy broth powder in 1% agarose and containing approximately 4×10^5 CFU/ml of mid-log phase organisms. After allowing 3 hours for the samples to diffuse into the underlayer gel, a nutrient-rich overlay gel was poured and the plates were incubated for 24 hours at 37° C. to allow surviving organisms to form microcolonies. The diameters of the clear zones were measured and expressed in "units" (10 units=1 mm) as described previously.

[2] = tested on: lipid polysaccharide (LPS) of the Gram-negative bacterium E. coli strain 0.55B5; experiment: Limulus amebocyte lysate (LAL) test for endotoxin binding; assay type: biochemical; conditions: for concentration giving complete inhibition of gelation / concentration giving complete inhibition of gelation, molar: LAL test; for LAL gel formation: peptide 0.63 μg/ml (.625 in Table 4), LPS 0.05 endotoxin unit/ml
Description: The prophenins of the invention were tested for their ability to bind the lipid polysaccharide (LPS) of the Gram-negative bacterium E. coli strain 0.55B5. The assay was the Limulus amebocyte lysate (LAL) test for endotoxins conducted in the presence and absence of the test compounds. The test was conducted using the procedure described in Sigma Technical Bulletin No. 210 as revised in December 1992 and published by Sigma Chemical Company, St. Louis, Mo.
The LAL test is based on the ability of LPS to effect gelation in the commercial reagent E-TOXATE™ which is prepared from the lysate of circulating amebocytes of the Horseshoe Crab Limulus polyphemus. As described in the technical bulletin, when exposed to minute quantities of LPS, the lysate increases in opacity as well as viscosity and may gel or clot depending on the concentration of endotoxin. The technical bulletin goes on to speculate that the mechanism appears analogous to the clotting of mammalian blood and involves the steps of activation of a trypsin-like preclotting enzymes by the LPS in the presence of calcium ion, followed by enzymic modifications of a "coagulogen" by proteolysis to produce a clottable protein. These steps are believed tied to the biologically active or "pyrogenic" portion of the molecule. It has been shown previously that detoxified LPS (or endotoxin) gives a negative LAL test.
Polymyxin B is a cyclic 1.2 kD acylated […] obtained from Bacillus polymyxa. Polymyxin B was used as a positive control since it is known to inhibit LPS-induced Limulus hemocyte lysate clotting.
In the assay, the amounts of prophenin-1 and polymyxin B (78% free polymyxin, Sigma) were preincubated in a final volume of 0.2 ml and the test mixtures contained LPS at a final concentration of 0.05 endotoxin unit/ml and E-TOXATE™ at the same concentration. The test compounds were incubated together with the LPS for 15 minutes before the E-TOXATE™ was added to a final volume (after E-TOXATE™ addition) of 0.2 ml. The tubes were then incubated for 60 minutes at 37° C. and examined for the formation of a gel.
The ability of fragments of prophenin-1 to bind LPS was also assayed. Prophenin-1 was digested with TLCK treated trypsin as described above, thus cleaving the protein C-terminal to the initial 4 arginines. The fragments were purified by RP-HPLC, and their identities were verified by ESI-MS and amino acid composition analysis. The three fragments were those obtained as described in Example 1 and are as follows: […]

[3] = tested on: E. coli ML-35; experiment: Radial diffusion assay in agarose gels, E. coli; assay type: cell-based; conditions: for inhibitory activity (FIG. 4a): E. coli ML-35, clear zone units
Description: as §1, §2

[4] = tested on: L. monocytogenes, Strain EGD; experiment: Radial diffusion assay in agarose gels, L. monocytogenes; assay type: cell-based, Listeria monocytogenes
Description: as §1, §2

Row | Molecule | inhibitory activity (FIG. 4c) [1] | concentration giving complete inhibition of gelation [2] [µg/mL] | concentration giving complete inhibition of gelation, molar [2] | LAL gel formation [2] | inhibitory activity (FIG. 4a) [3] | concentrations at which some activity was shown ([4]; FIG. 4b) | inhibitory activity (FIG. 4b) ([4]; clear zone units) | specificity for Gram-negative bacteria ([3]; compared over E. coli, L. monocytogenes, C. albicans) | LPS binding / inactivation in words [2] | potency in binding LPS relative to polymyxin B sulfate, molar basis ([2]; 4.2/0.072)
1 | HNP-1: human defensin (HNP-1), control | substantially noninhibitory | – | – | – | – | – | – | – | – | –
2 | Polymyxin B [reference compound] | – | 5 | ≈ 4.2 μM | ++ | – | – | – | – | – | –
3 | PG-3: protegrin-3 (PG3), control (RGGGLCYCRRRFCVCVGR; ends and bridges not checked; cysteine pairing not given here; UniProt P32196 131-148, looked up) [reference compound] | successful antifungals | – | – | – | more inhibitory than HNP-1 | – | – | – | – | –
4 | B1 | substantially noninhibitory | 0.625 | ≈ 72 nM | 0 | comparable in inhibitory activity to PG3 and NP1 | above 100 μg/ml | substantially less inhibitory | highly specific for Gram-negative bacteria | more effective than the additive value of the subunits | approximately 60 fold
